{
  "source": "paper PMC5042466",
  "about": "“Irreversible Inhibition of Glutathione S-Transferase by Phenethyl Isothiocyanate (PEITC), a Dietary Cancer Chemopreventive Phytochemical” (PLoS ONE, 2016)",
  "proteins": {"B1": {"name": "human alpha class glutathione S-transferase of subunit type 1 (hGSTA1), Cys112-PEITC adduct, with GS-PEITC bound (enzyme)", "chain": "AEKPKLHYFNARGRMESTRWLLAAAGVEFEEKFIKSAEDLDKLRNDGYLMFQQVPMVEIDGMKLVQTRAILNYIASKYNLYGKDIKERALIDMYIEGIADLGEMILLLPVCPPEEKDAKLALIKEKIKNRYFPAFEKVLKSHGQDYLVGNKLSRADIHLVELLYYVEELDSSLISSFPLLKALKTRISNLPTVKKFLQPGSPRKPPMDEKSLEEARKIFRF", "modifications": "Cys112 side chain covalently modified by PEITC (phenethyl isothiocyanate)", "notes": "glutathione S-transferase alpha 1 (hGSTA1), human; In the crystal the active site holds the small-molecule product GS-PEITC; also called hGSTA1-PEITC; hGSTA1:GS-PEITC; source: prepared as described [11,12]"}},
  "target": "the molecule itself",
  "experiment": "crystal structure; hGSTA1 (13 mg/ml) mixed with GSH and PEITC, 6 h at 4°C; sitting drop, 20% PEG 3350, 0.2 M sodium acetate; 1.93 Å, space group C2",
  "data": [
    {"protein": "B1", "values": [
      {"measurement": "binding result", "result": "binds"}
    ]}
  ]
}
